In the supplement of paper PMC10126150:
± gives the standard deviation of the averaged measurements.

System: ATP
Assay: switch fluorescence ratio, 500 uM ATP over buffer (Cy3 cluster intensity, sum of 5 cycles each) (fold (ratio)); higher = stronger signal-on switching upon ATP binding; sequences stand for … in TCGTCGGCAGCGTCAGATGTGTATAAGAGACAGTTTTTTTTTTTTTTTTTTTTTTTTT…TC
Conditions: aptamer strand: ATP DNA aptamer (quencher-CACCTGGGGGAGTATTGCGGAGGAAGG + anchor), 100 nM annealed; ATP concentration: 500 uM
Method in brief: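 After annealing to 100 nM quencher-labelled ATP aptamer, Cy3-labelled switching-strand clusters on a modified Illumina MiSeq flow-cell were imaged in selection buffer. A second image followed after 15 min with 500 uM ATP at 22 °C, and five such buffer/ATP cycles were done, each separated by NaOH stripping and re-annealing. The fluorescence ratio, averaged per switch-domain sequence, is summed target-cycle over summed buffer-cycle Cy3 intensity per cluster, with clusters outside 100-1000 RFU excluded.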
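Note: ATP exposure 15 min at 22 °C before imaging.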

TTGTTCGATG
switch fluorescence ratio: 0.99 ± 0.025

TTGTTCGATT
switch fluorescence ratio: 1 ± 0.034

TTGTTCGGGA
switch fluorescence ratio: 1.016 ± 0.0094

TTGTTCGGGG
switch fluorescence ratio: 1.03 ± 0.056

TTGTTCGGTA
switch fluorescence ratio: 1.02 ± 0.016

TTGTTCGTAG
switch fluorescence ratio: 0.981 ± 0.034

TTGTTGAGAA
switch fluorescence ratio: 0.995 ± 0.056

TTGTTGAGAT
switch fluorescence ratio: 1.02 ± 0.035

TTGTTGAGGG
switch fluorescence ratio: 1.014 ± 0.0042

TTGTTGCTTT
switch fluorescence ratio: 1.02 ± 0.03

TTGTTGGCGA
switch fluorescence ratio: 1.04 ± 0.023

TTGTTGTTAG
switch fluorescence ratio: 1.0094 ± 0.00094

TTGTTGTTGG
switch fluorescence ratio: 1.01 ± 0.032

TTGTTGTTTT
switch fluorescence ratio: 0.995 ± 0.035

TTGTTTAGGT
switch fluorescence ratio: 1 ± 0.03

TTGTTTATTC
switch fluorescence ratio: 1.02 ± 0.071

TTGTTTGTAA
switch fluorescence ratio: 1.04 ± 0.018

TTGTTTGTCC
switch fluorescence ratio: 1.03 ± 0.058

TTGTTTGTGT
switch fluorescence ratio: 1.02 ± 0.03

TTGTTTGTTC
switch fluorescence ratio: 1.01 ± 0.034

TTGTTTTATG
switch fluorescence ratio: 0.998 ± 0.022

TTGTTTTTGT
switch fluorescence ratio: 1.03 ± 0.032

TTGTTTTTT
switch fluorescence ratio: 1.03 ± 0.018

TTGTTTTTTT
switch fluorescence ratio: 1 ± 0.05

TTTAAAAAAA
switch fluorescence ratio: 1.02 ± 0.027

TTTAAAAAAT
switch fluorescence ratio: 1.02 ± 0.035

TTTAAAAGA
switch fluorescence ratio: 1 ± 0.02

TTTAAACCTT
switch fluorescence ratio: 1.89 ± 1.2

TTTAAACGGA
switch fluorescence ratio: 1.05 ± 0.081

TTTAAAGACC
switch fluorescence ratio: 0.993 ± 0.022

TTTAAAGAGT
switch fluorescence ratio: 0.972 ± 0.022

TTTAAAGGGT
switch fluorescence ratio: 1.01 ± 0.031

TTTAAATAAC
switch fluorescence ratio: 1.02 ± 0.029

TTTAAATCCT
switch fluorescence ratio: 1.09 ± 0.013

TTTAAATTCG
switch fluorescence ratio: 1.01 ± 0.014

TTTAAATTTA
switch fluorescence ratio: 1.01 ± 0.028

TTTAACCCCC
switch fluorescence ratio: 1.17 ± 0.24

TTTAACCGTA
switch fluorescence ratio: 1.02 ± 0.023

TTTAACGCAT
switch fluorescence ratio: 1.24 ± 0.12

TTTAACTGA
switch fluorescence ratio: 1.04 ± 0.044

TTTAACTTAG
switch fluorescence ratio: 1.016 ± 0.0032

TTTAAGAAGT
switch fluorescence ratio: 1 ± 0.027

TTTAAGAGTG
switch fluorescence ratio: 0.992 ± 0.0031

TTTAAGCAAG
switch fluorescence ratio: 1.062 ± 0.0077

TTTAAGGCGG
switch fluorescence ratio: 0.989 ± 0.044

TTTAAGGGTA
switch fluorescence ratio: 0.994 ± 0.023

TTTAAGGGTT
switch fluorescence ratio: 1.02 ± 0.054

TTTAAGGTCG
switch fluorescence ratio: 1.03 ± 0.082

TTTAAGGTGG
switch fluorescence ratio: 1.015 ± 0.0046

TTTAAGTCT
switch fluorescence ratio: 0.984 ± 0.095

TTTAAGTGGT
switch fluorescence ratio: 0.998 ± 0.018

TTTAATACTT
switch fluorescence ratio: 1.03 ± 0.0052

TTTAATAGGG
switch fluorescence ratio: 0.995 ± 0.036

TTTAATCGAG
switch fluorescence ratio: 1.04 ± 0.037

TTTAATGAAC
switch fluorescence ratio: 1 ± 0.074

TTTAATGAGT
switch fluorescence ratio: 1.02 ± 0.024

TTTAATGCAA
switch fluorescence ratio: 1.05 ± 0.033

TTTAATTAAG
switch fluorescence ratio: 0.985 ± 0.055

TTTAATTAAT
switch fluorescence ratio: 0.983 ± 0.023

TTTAATTATT
switch fluorescence ratio: 1.02 ± 0.0053

TTTAATTCTT
switch fluorescence ratio: 1 ± 0.012

TTTAATTGCC
switch fluorescence ratio: 0.993 ± 0.081

TTTAATTGGC
switch fluorescence ratio: 1.17 ± 0.19

TTTAATTGGT
switch fluorescence ratio: 1.02 ± 0.021

TTTAATTGTT
switch fluorescence ratio: 0.978 ± 0.034

TTTAATTTAG
switch fluorescence ratio: 1.02 ± 0.024

TTTACAAGGT
switch fluorescence ratio: 1.03 ± 0.014

TTTACAATCG
switch fluorescence ratio: 0.9899 ± 0.0098

TTTACATAAG
switch fluorescence ratio: 1 ± 0.043

TTTACCACCT
switch fluorescence ratio: 1.27 ± 0.096

TTTACCCTCC
switch fluorescence ratio: 1.21 ± 0.13

TTTACCGCTA
switch fluorescence ratio: 1.94 ± 0.58

TTTACCTAGA
switch fluorescence ratio: 0.997 ± 0.025

TTTACCTGAG
switch fluorescence ratio: 1.37 ± 0.025

TTTACCTTGC
switch fluorescence ratio: 2.03 ± 0.19

TTTACGAAAA
switch fluorescence ratio: 1.12 ± 0.046

TTTACGATTG
switch fluorescence ratio: 1.03 ± 0.029

TTTACGTAAA
switch fluorescence ratio: 1.08 ± 0.11

TTTACTTCGC
switch fluorescence ratio: 1.54 ± 0.089

TTTAGAGGGG
switch fluorescence ratio: 1.02 ± 0.024

TTTAGATAAT
switch fluorescence ratio: 1 ± 0.014

TTTAGCCCAG
switch fluorescence ratio: 1.013 ± 0.0024

TTTAGCCGGT
switch fluorescence ratio: 0.995 ± 0.012

TTTAGGACGC
switch fluorescence ratio: 1.02 ± 0.022

TTTAGGAGGG
switch fluorescence ratio: 0.997 ± 0.019

TTTAGGATAA
switch fluorescence ratio: 1.02 ± 0.013

TTTAGGATTG
switch fluorescence ratio: 0.98 ± 0.034

TTTAGGCAAT
switch fluorescence ratio: 3.43 ± 2.7

TTTAGGCCAT
switch fluorescence ratio: 1.017 ± 0.01

TTTAGGCCCC
switch fluorescence ratio: 0.993 ± 0.044

TTTAGGCCGA
switch fluorescence ratio: 0.99 ± 0.043

TTTAGGGAGT
switch fluorescence ratio: 0.985 ± 0.015

TTTAGGGGAT
switch fluorescence ratio: 1.01 ± 0.038

TTTAGGGGCC
switch fluorescence ratio: 0.987 ± 0.021

TTTAGGGGGA
switch fluorescence ratio: 1.01 ± 0.044

TTTAGGGTGA
switch fluorescence ratio: 1.05 ± 0.028

TTTAGGGTGC
switch fluorescence ratio: 1.03 ± 0.079

TTTAGGGTTT
switch fluorescence ratio: 1.06 ± 0.19

TTTAGGTGGT
switch fluorescence ratio: 1.11 ± 0.2

TTTAGTCATT
switch fluorescence ratio: 0.989 ± 0.04

TTTAGTCCCC
switch fluorescence ratio: 1.06 ± 0.046

TTTAGTCGGT
switch fluorescence ratio: 0.9638 ± 0.0056

TTTAGTGACA
switch fluorescence ratio: 0.9978 ± 0.0036

TTTAGTGCAT
switch fluorescence ratio: 1.03 ± 0.034

TTTAGTGTAA
switch fluorescence ratio: 0.966 ± 0.019

TTTAGTTATT
switch fluorescence ratio: 0.998 ± 0.017

TTTAGTTGCC
switch fluorescence ratio: 0.984 ± 0.058

TTTATAAATG
switch fluorescence ratio: 1.014 ± 0.0017

TTTATACGGT
switch fluorescence ratio: 1.01 ± 0.005

TTTATAGAGT
switch fluorescence ratio: 1.03 ± 0.029

TTTATAGGCG
switch fluorescence ratio: 0.987 ± 0.023

TTTATAGGGA
switch fluorescence ratio: 0.987 ± 0.015

TTTATAGGGC
switch fluorescence ratio: 1.01 ± 0.021

TTTATAGGTG
switch fluorescence ratio: 1.14 ± 0.089

TTTATATTAA
switch fluorescence ratio: 1.03 ± 0.049

TTTATATTCT
switch fluorescence ratio: 1.03 ± 0.074

TTTATATTTG
switch fluorescence ratio: 1 ± 0.027

TTTATCAGCT
switch fluorescence ratio: 0.9985 ± 0.0065

TTTATCGTTT
switch fluorescence ratio: 1 ± 0.032

TTTATGGAAT
switch fluorescence ratio: 0.998 ± 0.015

TTTATGGTCC
switch fluorescence ratio: 1.02 ± 0.029

TTTATGGTTT
switch fluorescence ratio: 1 ± 0.031

TTTATGTATT
switch fluorescence ratio: 1 ± 0.022

TTTATGTGGA
switch fluorescence ratio: 1.01 ± 0.027

TTTATTAGTT
switch fluorescence ratio: 0.998 ± 0.025

TTTATTCAAG
switch fluorescence ratio: 0.988 ± 0.021

TTTATTCGCG
switch fluorescence ratio: 1.03 ± 0.029

TTTATTGCAT
switch fluorescence ratio: 1.018 ± 0.0082

TTTATTTAAC
switch fluorescence ratio: 1.052 ± 0.01

TTTATTTAGC
switch fluorescence ratio: 1.02 ± 0.034

TTTATTTGAT
switch fluorescence ratio: 0.9955 ± 0.0012

TTTATTTTCC
switch fluorescence ratio: 1.05 ± 0.033

TTTCAAAAAT
switch fluorescence ratio: 1.01 ± 0.044

TTTCAAATCT
switch fluorescence ratio: 1.026 ± 0.0019

TTTCAAATGT
switch fluorescence ratio: 1.11 ± 0.17

TTTCAAGGGG
switch fluorescence ratio: 0.996 ± 0.011

TTTCAAGTAC
switch fluorescence ratio: 1.49 ± 0.21

TTTCAATAAT
switch fluorescence ratio: 0.988 ± 0.023

TTTCAATAGT
switch fluorescence ratio: 1.09 ± 0.14

TTTCAATATT
switch fluorescence ratio: 1.03 ± 0.031

TTTCAATCTG
switch fluorescence ratio: 1.04 ± 0.038

TTTCAATGGT
switch fluorescence ratio: 1 ± 0.045

TTTCACAAAG
switch fluorescence ratio: 1 ± 0.018

TTTCACGCTC
switch fluorescence ratio: 1.12 ± 0.21

TTTCACGGGA
switch fluorescence ratio: 1.07 ± 0.066

TTTCACTATT
switch fluorescence ratio: 1.01 ± 0.026

TTTCAGACAC
switch fluorescence ratio: 1.02 ± 0.011

TTTCAGGTGT
switch fluorescence ratio: 2.15 ± 0.98

TTTCAGTGAC
switch fluorescence ratio: 1.04 ± 0.079

TTTCATAGTT
switch fluorescence ratio: 0.954 ± 0.017

TTTCATATTT
switch fluorescence ratio: 1.03 ± 0.014

TTTCATGGTA
switch fluorescence ratio: 0.998 ± 0.0099

TTTCATTCGG
switch fluorescence ratio: 1.06 ± 0.13

TTTCATTGGT
switch fluorescence ratio: 1 ± 0.027

TTTCCAAACA
switch fluorescence ratio: 1.01 ± 0.014

TTTCCAAGGT
switch fluorescence ratio: 1.12 ± 0.11

TTTCCACGGG
switch fluorescence ratio: 1.18 ± 0.025

TTTCCCGGCT
switch fluorescence ratio: 1.04 ± 0.083

TTTCCCGTTT
switch fluorescence ratio: 1.13 ± 0.095

TTTCCGTGAT
switch fluorescence ratio: 1.918 ± 0.013

TTTCCTGACG
switch fluorescence ratio: 1.06 ± 0.028

TTTCCTGGCT
switch fluorescence ratio: 1.02 ± 0.032

TTTCCTTGAA
switch fluorescence ratio: 0.974 ± 0.017

TTTCGAAGGT
switch fluorescence ratio: 0.987 ± 0.019

TTTCGAATAT
switch fluorescence ratio: 0.9836 ± 0.0061

TTTCGACGTC
switch fluorescence ratio: 0.997 ± 0.12

TTTCGAGAGA
switch fluorescence ratio: 1.02 ± 0.027

TTTCGAGTCA
switch fluorescence ratio: 1 ± 0.03

TTTCGATTCT
switch fluorescence ratio: 0.978 ± 0.029

TTTCGCCGTT
switch fluorescence ratio: 1.003 ± 0.0055

TTTCGGAAAG
switch fluorescence ratio: 0.967 ± 0.042

TTTCGGAACA
switch fluorescence ratio: 1.001 ± 0.0066

TTTCGGAGAA
switch fluorescence ratio: 0.962 ± 0.028

TTTCGGAGTG
switch fluorescence ratio: 1.024 ± 0.0066

TTTCGGCGTT
switch fluorescence ratio: 1.043 ± 0.0069

TTTCGGGTAC
switch fluorescence ratio: 1.2 ± 0.22

TTTCGGGTGG
switch fluorescence ratio: 0.979 ± 0.023

TTTCGGTGTG
switch fluorescence ratio: 0.977 ± 0.0098

TTTCGTGCCT
switch fluorescence ratio: 1.065 ± 0.0026

TTTCGTGGAG
switch fluorescence ratio: 0.996 ± 0.02

TTTCGTGTGA
switch fluorescence ratio: 1.015 ± 0.0062

TTTCGTTGCT
switch fluorescence ratio: 0.994 ± 0.018

TTTCGTTGGT
switch fluorescence ratio: 0.982 ± 0.016

TTTCTATGTA
switch fluorescence ratio: 1.01 ± 0.024

TTTCTCGTAG
switch fluorescence ratio: 0.991 ± 0.016

TTTCTCGTTG
switch fluorescence ratio: 0.9908 ± 0.0074

TTTCTCTACG
switch fluorescence ratio: 1.015 ± 0.0056

TTTCTGAGTT
switch fluorescence ratio: 1.01 ± 0.032

TTTCTGCGGC
switch fluorescence ratio: 1.046 ± 0.0017

TTTCTGGCAA
switch fluorescence ratio: 1.32 ± 0.38

TTTCTGGCGA
switch fluorescence ratio: 1.054 ± 0.01

TTTCTGGTCT
switch fluorescence ratio: 1.03 ± 0.012

TTTCTGTATC
switch fluorescence ratio: 1.04 ± 0.044

TTTCTGTTGT
switch fluorescence ratio: 1.14 ± 0.16

TTTCTGTTTC
switch fluorescence ratio: 1.04 ± 0.052

TTTCTGTTTT
switch fluorescence ratio: 0.9913 ± 0.0088

TTTCTTATGT
switch fluorescence ratio: 1.03 ± 0.024

TTTCTTCGCG
switch fluorescence ratio: 1.027 ± 0.0032

TTTCTTGTTT
switch fluorescence ratio: 0.985 ± 0.055

TTTGAAAACT
switch fluorescence ratio: 0.995 ± 0.024
